Where a chain is given by its changes, count along the chain named. Names and notes keep the numbering of the source.
T1: EsCas13d, nuclease-dead (Eubacterium siraeum, UniProt B0MS50, R295A;H300A;R849A;H854A)
T1 sequence: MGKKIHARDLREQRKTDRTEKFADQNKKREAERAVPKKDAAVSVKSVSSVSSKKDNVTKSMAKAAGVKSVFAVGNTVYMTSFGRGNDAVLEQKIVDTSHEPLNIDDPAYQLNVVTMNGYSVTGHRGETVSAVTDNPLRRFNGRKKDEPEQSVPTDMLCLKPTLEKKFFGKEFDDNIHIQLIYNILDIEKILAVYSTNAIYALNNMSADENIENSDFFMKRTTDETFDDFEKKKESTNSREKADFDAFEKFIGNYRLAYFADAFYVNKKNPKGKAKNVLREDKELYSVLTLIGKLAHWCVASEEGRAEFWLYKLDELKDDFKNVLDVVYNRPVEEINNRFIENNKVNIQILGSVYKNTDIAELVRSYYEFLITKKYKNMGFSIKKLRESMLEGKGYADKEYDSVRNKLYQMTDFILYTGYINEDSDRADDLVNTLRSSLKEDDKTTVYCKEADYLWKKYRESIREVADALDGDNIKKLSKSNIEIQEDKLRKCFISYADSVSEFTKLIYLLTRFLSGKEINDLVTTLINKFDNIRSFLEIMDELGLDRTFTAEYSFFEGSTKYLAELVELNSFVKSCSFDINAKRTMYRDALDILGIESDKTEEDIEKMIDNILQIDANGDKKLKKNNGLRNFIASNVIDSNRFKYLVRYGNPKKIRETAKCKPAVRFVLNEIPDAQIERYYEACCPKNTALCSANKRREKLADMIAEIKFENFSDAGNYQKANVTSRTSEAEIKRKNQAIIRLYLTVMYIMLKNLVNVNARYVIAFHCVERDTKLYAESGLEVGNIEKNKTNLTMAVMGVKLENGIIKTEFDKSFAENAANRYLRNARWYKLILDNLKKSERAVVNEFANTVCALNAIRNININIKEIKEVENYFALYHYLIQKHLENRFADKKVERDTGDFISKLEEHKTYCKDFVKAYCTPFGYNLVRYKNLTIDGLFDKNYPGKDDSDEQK

B1: target 1 C2U,A9U (mixed)
RNA 1: CACCCGUGCAAAAAUGCAGGGGUCUAAAACUGAGCGGAUAACCUCUCUAUGG
RNA 2: GGGAAUGGAUCCACAUCUACGAAUUCGUACCAUAGAGAGGUUUUCCGCUUACCGAGAUCGGAAGAGCACACGU
B2: target 1 C7A,A18G (mixed)
RNA 1: B1 RNA 1
RNA 2: B1 RNA 2 with A34G, U43A, C45A, U50C
B3: target 1 A9C,G15U (mixed)
RNA 1: B1 RNA 1
RNA 2: B1 RNA 2 with G37U, U43C, U50C
B4: target 1 insG 3' of 18,insU 3' of 17 (mixed)
RNA 1: B1 RNA 1
RNA 2: GGGAAUGGAUCCACAUCUACGAAUUCGUACCAUAGGUAGAGGUUAUCCGCUCACCGAGAUCGGAAGAGCACACGU
B5: target 2 MT 5'PFS UAU 3'PFS GGC (mixed)
RNA 1: CACCCGUGCAAAAUUGCAGGGGUCUAAAACCUUCUCCAAAUUGUUUCAUCCU
RNA 2: GGGAAUGGAUCCACAUCUACGAAUUCUAUAGGAUGAAACAAUUUGGAGAAGGGCAGAUCGGAAGAGCACACGU
B6: target 2 MT 5'PFS ACU 3'PFS UAU (mixed)
RNA 1: B5 RNA 1
RNA 2: B5 RNA 2 with U27A, A28C, G52U, G53A, C54U
B7: target 2 MT 5'PFS GAU 3'PFS UGC (mixed)
RNA 1: B5 RNA 1
RNA 2: B5 RNA 2 with U27G, G52U
B8: target 2 MT 5'PFS UCG 3'PFS AUC (mixed)
RNA 1: B5 RNA 1
RNA 2: B5 RNA 2 with A28C, U29G, G52A, G53U
B9: target 2 MT 5'PFS UUA 3'PFS UCG (mixed)
RNA 1: B5 RNA 1
RNA 2: B5 RNA 2 with A28U, U29A, G52U, G53C, C54G
B10: target 2 MT 5'PFS ACU 3'PFS UAC (mixed)
RNA 1: B5 RNA 1
RNA 2: B5 RNA 2 with U27A, A28C, G52U, G53A
B11: target 2 MT 5'PFS UAU 3'PFS AUC (mixed)
RNA 1: B5 RNA 1
RNA 2: B5 RNA 2 with G52A, G53U
B12: target 2 MT 5'PFS CAC 3'PFS AAA (mixed)
RNA 1: B5 RNA 1
RNA 2: B5 RNA 2 with U27C, U29C, G52A, G53A, C54A
B13: target 2 MT 5'PFS ACC 3'PFS AAA (mixed)
RNA 1: B5 RNA 1
RNA 2: B5 RNA 2 with U27A, A28C, U29C, G52A, G53A, C54A
B14: target 2 MT 5'PFS GAU 3'PFS UGU (mixed)
RNA 1: B5 RNA 1
RNA 2: B5 RNA 2 with U27G, G52U, C54U
B15: target 2 MT 5'PFS GGA 3'PFS AUU (mixed)
RNA 1: B5 RNA 1
RNA 2: B5 RNA 2 with U27G, A28G, U29A, G52A, G53U, C54U
B16: target 2 MT 5'PFS UCG 3'PFS AUA (mixed)
RNA 1: B5 RNA 1
RNA 2: B5 RNA 2 with A28C, U29G, G52A, G53U, C54A
B17: target 2 MT 5'PFS GAU 3'PFS UGA (mixed)
RNA 1: B5 RNA 1
RNA 2: B5 RNA 2 with U27G, G52U, C54A
B18: target 2 MT 5'PFS AUC 3'PFS AGC (mixed)
RNA 1: B5 RNA 1
RNA 2: B5 RNA 2 with U27A, A28U, U29C, G52A
B19: target 2 MT 5'PFS ACG 3'PFS AAG (mixed)
RNA 1: B5 RNA 1
RNA 2: B5 RNA 2 with U27A, A28C, U29G, G52A, G53A, C54G
B20: target 2 MT 5'PFS AUG 3'PFS CUA (mixed)
RNA 1: B5 RNA 1
RNA 2: B5 RNA 2 with U27A, A28U, U29G, G52C, G53U, C54A
B21: target 2 MT 5'PFS GCU 3'PFS CGG (mixed)
RNA 1: B5 RNA 1
RNA 2: B5 RNA 2 with U27G, A28C, G52C, C54G
B22: target 2 MT 5'PFS ACU 3'PFS UAG (mixed)
RNA 1: B5 RNA 1
RNA 2: B5 RNA 2 with U27A, A28C, G52U, G53A, C54G
B23: target 2 MT 5'PFS ACU 3'PFS UAA (mixed)
RNA 1: B5 RNA 1
RNA 2: B5 RNA 2 with U27A, A28C, G52U, G53A, C54A
B24: target 2 MT 5'PFS ACG 3'PFS AAU (mixed)
RNA 1: B5 RNA 1
RNA 2: B5 RNA 2 with U27A, A28C, U29G, G52A, G53A, C54U
B25: target 2 MT 5'PFS ACC 3'PFS AAC (mixed)
RNA 1: B5 RNA 1
RNA 2: B5 RNA 2 with U27A, A28C, U29C, G52A, G53A
B26: target 2 MT 5'PFS GGC 3'PFS ACU (mixed)
RNA 1: B5 RNA 1
RNA 2: B5 RNA 2 with U27G, A28G, U29C, G52A, G53C, C54U
B27: target 2 MT 5'PFS AUG 3'PFS CUC (mixed)
RNA 1: B5 RNA 1
RNA 2: B5 RNA 2 with U27A, A28U, U29G, G52C, G53U
B28: target 2 MT 5'PFS GGC 3'PFS ACA (mixed)
RNA 1: B5 RNA 1
RNA 2: B5 RNA 2 with U27G, A28G, U29C, G52A, G53C, C54A
B29: target 2 MT 5'PFS AUG 3'PFS CUU (mixed)
RNA 1: B5 RNA 1
RNA 2: B5 RNA 2 with U27A, A28U, U29G, G52C, G53U, C54U
B30: target 2 MT 5'PFS GGC 3'PFS ACG (mixed)
RNA 1: B5 RNA 1
RNA 2: B5 RNA 2 with U27G, A28G, U29C, G52A, G53C, C54G
B31: target 2 MT 5'PFS GUA 3'PFS GCC (mixed)
RNA 1: B5 RNA 1
RNA 2: B5 RNA 2 with U27G, A28U, U29A, G53C
B32: target 2 MT 5'PFS GCU 3'PFS CGA (mixed)
RNA 1: B5 RNA 1
RNA 2: B5 RNA 2 with U27G, A28C, G52C, C54A
B33: target 2 MT 5'PFS CAC 3'PFS AAC (mixed)
RNA 1: B5 RNA 1
RNA 2: B5 RNA 2 with U27C, U29C, G52A, G53A
B34: target 2 MT 5'PFS GUA 3'PFS GCG (mixed)
RNA 1: B5 RNA 1
RNA 2: B5 RNA 2 with U27G, A28U, U29A, G53C, C54G
B35: target 2 MT 5'PFS ACC 3'PFS AAU (mixed)
RNA 1: B5 RNA 1
RNA 2: B5 RNA 2 with U27A, A28C, U29C, G52A, G53A, C54U
B36: target 2 MT 5'PFS AUC 3'PFS AGA (mixed)
RNA 1: B5 RNA 1
RNA 2: B5 RNA 2 with U27A, A28U, U29C, G52A, C54A
B37: target 2 MT 5'PFS ACG 3'PFS AAC (mixed)
RNA 1: B5 RNA 1
RNA 2: B5 RNA 2 with U27A, A28C, U29G, G52A, G53A
B38: target 2 MT 5'PFS UCG 3'PFS UGU (mixed)
RNA 1: B5 RNA 1
RNA 2: B5 RNA 2 with A28C, U29G, G52U, C54U

target: T1, EsCas13d, nuclease-dead; test: crRNA (strand 1, pre-loaded); Mg2+; 40 mM Tris-HCl pH 7.5, 150 mM NaCl, 6 mM MgCl2, 1 mM DTT, 0.1% Tween-20, 0.2 mg/ml BSA; 25 C; 10 min per concentration, then washed; details: tags: His6-TwinStrep-SUMO cleaved; N-terminal SNAP kept (SNAP-Surface 488); label: 3' end held by stalled T7 RNA polymerase

Point of comparison: B36, Kd ~80 nM. Against it:
- B1 — 9.4-fold lower, 8.5 ± 0.7 nM
- B2 — 1.6-fold lower, 50 ± 8 nM
- B3 — within 1.5-fold, ~70 nM
- B4 — 2.6-fold lower, 30.3 ± 2.6 nM
- B5 — 1.8-fold lower, 44 ± 12 nM
- B6 — 21-fold lower, 3.8 ± 0.6 nM
- B7 — 5.4-fold lower, 14.9 ± 1.9 nM
- B8 — within 1.5-fold, ~70 nM
- B9 — 3.2-fold lower, 25 ± 4 nM
- B10 — 13-fold lower, 6.2 ± 0.9 nM
- B11 — 1.5-fold lower, 53 ± 9 nM
- B12 — 47-fold lower, 1.71 ± 0.3 nM
- B13 — 8.6-fold lower, 9.3 ± 2.7 nM
- B14 — 3.8-fold lower, 21.2 ± 2.2 nM
- B15 — 8.9-fold lower, 9 ± 1 nM
- B16 — 2.8-fold lower, 29 ± 9 nM
- B17 — 4.2-fold lower, 19 ± 5 nM
- B18 — 3.8-fold lower, 21 ± 8 nM
- B19 — 8.2-fold lower, 9.8 ± 1.8 nM
- B20 — 11-fold lower, 7.5 ± 0.9 nM
- B21 — 4.2-fold lower, 19 ± 4 nM
- B22 — 23-fold lower, 3.5 ± 0.4 nM
- B23 — 20-fold lower, 4 ± 0.9 nM
- B24 — 15-fold lower, 5.4 ± 1.3 nM
- B25 — 7.6-fold lower, 10.5 ± 3.1 nM
- B26 — 3.8-fold lower, 21.3 ± 2.5 nM
- B27 — 5-fold lower, 16 ± 5 nM
- B28 — 4.4-fold lower, 18 ± 4 nM
- B29 — 5.2-fold lower, 15.4 ± 2.9 nM
- B30 — 5.1-fold lower, 15.8 ± 1.1 nM
- B31 — 12-fold lower, 6.4 ± 1.5 nM
- B32 — 3.5-fold lower, 23 ± 5 nM
- B33 — 40-fold lower, 1.98 ± 0.3 nM
- B34 — 12-fold lower, 6.7 ± 0.6 nM
- B35 — 10-fold lower, 8 ± 1.2 nM
- B37 — 15-fold lower, 5.5 ± 1.2 nM
- B38 — 1.5-fold higher, ~120 nM
